Source: publication PMC7039703

Assays:
FcγRIIIaV (human) = FcγRIIIaV (human) (UniProt P08637); assay: BLI
His-tagged FcγRI (human) = His-tagged FcγRI (human) (UniProt P12314); assay: ELISA
[1] = target: His-tagged FcγRIIB (human) (UniProt P31994); assay: ELISA
[2] = target: His-tagged FcγRIIaR (human) (UniProt P12318); assay: ELISA
Chain of UniProt P12318 (P12318 34-217): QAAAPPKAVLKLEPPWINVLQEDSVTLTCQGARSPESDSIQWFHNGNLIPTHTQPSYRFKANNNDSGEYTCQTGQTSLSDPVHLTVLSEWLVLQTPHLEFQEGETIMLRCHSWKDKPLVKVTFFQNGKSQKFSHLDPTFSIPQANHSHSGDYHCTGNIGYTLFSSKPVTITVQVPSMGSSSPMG

Chain of UniProt P08637 (P08637 17-208): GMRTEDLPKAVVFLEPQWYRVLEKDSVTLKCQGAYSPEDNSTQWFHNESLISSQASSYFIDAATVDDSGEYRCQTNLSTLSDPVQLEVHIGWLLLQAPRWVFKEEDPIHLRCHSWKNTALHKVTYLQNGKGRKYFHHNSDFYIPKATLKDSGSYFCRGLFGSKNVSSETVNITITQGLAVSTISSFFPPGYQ
Chain of UniProt P31994 (P31994 43-217): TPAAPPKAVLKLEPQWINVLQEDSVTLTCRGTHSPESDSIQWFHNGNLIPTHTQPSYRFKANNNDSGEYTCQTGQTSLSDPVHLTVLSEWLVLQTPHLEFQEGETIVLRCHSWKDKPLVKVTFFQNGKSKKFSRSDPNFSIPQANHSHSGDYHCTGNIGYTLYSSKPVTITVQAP
Chain of UniProt P12314 (P12314 16-292): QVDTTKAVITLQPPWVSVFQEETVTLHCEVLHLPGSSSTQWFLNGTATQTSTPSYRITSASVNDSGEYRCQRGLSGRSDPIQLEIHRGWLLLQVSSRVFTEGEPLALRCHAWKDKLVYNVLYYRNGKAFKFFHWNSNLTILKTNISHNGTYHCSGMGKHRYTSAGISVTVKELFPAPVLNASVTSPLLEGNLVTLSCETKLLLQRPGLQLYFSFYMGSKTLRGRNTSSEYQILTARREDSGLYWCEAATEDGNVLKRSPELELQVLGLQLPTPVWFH

“monoclonal anti-CD20 antibody GA101 produced in 293SGlycoDelete cells” gave a fold lower binding affinity against 293S anti-CD20 (FcγRIIIaV (human)) of 5.8 fold, a fold reduction of binding competition against 293S anti-CD20 (His-tagged FcγRI (human)) of over 10 fold and a fold reduction of binding competition against 293S anti-CD20 [1] of over 10 fold. It also gave a fold reduction of binding competition against 293S anti-CD20 [2] of over 10 fold.
